Results published in US12534531 (MacroGenics, dated 2026).
One block for each binder: values may come before it.

How the values were obtained:
[1] = biological target: T1, biotinylated-soluble human LAG-3-Fc fusion protein (human, UniProt P18627 23-450, biotinylated (site not stated)); assay: FACS: inhibition of shLAG-3-Fc binding to MHC II on Daudi cells (column head prints EC50); SM; SD 0.0571
T1 construct: whole entry named; also called shLAG-3; shLAG-3-Fc; not shown: Fc
T1 sequence: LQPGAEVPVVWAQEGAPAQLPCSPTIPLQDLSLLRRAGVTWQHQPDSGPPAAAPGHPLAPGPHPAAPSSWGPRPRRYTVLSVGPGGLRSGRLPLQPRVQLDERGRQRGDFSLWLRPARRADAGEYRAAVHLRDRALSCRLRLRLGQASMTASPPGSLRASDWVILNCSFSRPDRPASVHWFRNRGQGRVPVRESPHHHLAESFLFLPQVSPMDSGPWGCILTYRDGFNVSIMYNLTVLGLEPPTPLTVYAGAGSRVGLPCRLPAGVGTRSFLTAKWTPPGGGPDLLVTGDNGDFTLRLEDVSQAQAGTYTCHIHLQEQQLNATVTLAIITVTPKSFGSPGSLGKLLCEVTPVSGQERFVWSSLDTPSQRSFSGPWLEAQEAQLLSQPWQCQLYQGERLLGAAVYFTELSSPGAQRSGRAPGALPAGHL

[2] = biological target: T2, human PD-1 expressed on the surface of cells (NSO cells expressing human PD-1; MNFAT-luc2/PD-1 Jurkat cells) (human, UniProt Q15116 21-288); assay: FACS: inhibition of sPD-L2 binding to PD-1 on NSO cells; SM; SD 0.5438
T2 construct: also called cell surface PD-1; PDCD1 transfected NSO cells expressing PD-1
T2 sequence (Q15116 21-288): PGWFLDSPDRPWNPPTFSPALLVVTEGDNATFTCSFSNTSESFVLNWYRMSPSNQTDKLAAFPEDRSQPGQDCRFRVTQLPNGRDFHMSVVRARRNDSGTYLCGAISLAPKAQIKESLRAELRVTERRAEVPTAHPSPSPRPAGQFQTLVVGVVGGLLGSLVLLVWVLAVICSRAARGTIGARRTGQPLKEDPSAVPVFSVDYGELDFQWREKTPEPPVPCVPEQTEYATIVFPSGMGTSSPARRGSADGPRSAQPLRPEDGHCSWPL

[3] = biological target: T2, human PD-1 expressed on the surface of …; assay: FACS: inhibition of sPD-L1 binding to PD-1 on NSO cells; SM; SD 0.3097
[4] = biological target: T1, biotinylated-soluble human LAG-3-Fc …; assay: FACS: inhibition of shLAG-3-Fc binding to MHC II on Daudi cells (column head prints EC50); SM; SD 0.2176
[5] = biological target: T3, human LAG-3 expressed on NSO cells (human, UniProt P18627 29-525); assay: FACS saturation binding to NSO cells expressing LAG-3; SM; SD 0.1969
T3 sequence: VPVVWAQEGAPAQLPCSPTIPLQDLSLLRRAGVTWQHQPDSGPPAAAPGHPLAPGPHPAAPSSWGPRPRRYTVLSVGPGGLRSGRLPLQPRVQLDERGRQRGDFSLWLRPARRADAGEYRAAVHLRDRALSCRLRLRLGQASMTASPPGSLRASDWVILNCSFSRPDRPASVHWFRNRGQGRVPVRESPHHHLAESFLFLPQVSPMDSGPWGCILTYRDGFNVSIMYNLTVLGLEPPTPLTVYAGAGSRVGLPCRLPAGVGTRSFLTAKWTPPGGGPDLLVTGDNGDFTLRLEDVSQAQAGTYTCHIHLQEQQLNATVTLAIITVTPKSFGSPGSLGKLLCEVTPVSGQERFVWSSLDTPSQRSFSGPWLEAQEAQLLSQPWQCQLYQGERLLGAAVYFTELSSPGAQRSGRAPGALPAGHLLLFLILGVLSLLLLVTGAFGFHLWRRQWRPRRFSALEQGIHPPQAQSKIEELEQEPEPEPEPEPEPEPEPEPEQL

[6] = biological target: T1, biotinylated-soluble human LAG-3-Fc …; assay: FACS: inhibition of shLAG-3-Fc binding to MHC II on Daudi cells (column head prints EC50); SM; SD 0.1409
[7] = biological target: T3, human LAG-3 expressed on NSO cells; assay: FACS saturation binding to NSO cells expressing LAG-3; SM; SD 0.3430
[8] = biological target: T1, biotinylated-soluble human LAG-3-Fc …; assay: FACS: inhibition of shLAG-3-Fc binding to MHC II on Daudi cells (column head prints EC50); SM; SD 0.1900
[9] = biological target: T3, human LAG-3 expressed on NSO cells; assay: FACS saturation binding to NSO cells expressing LAG-3; SM; SD 0.1376
[10] = biological target: T1, biotinylated-soluble human LAG-3-Fc …; assay: FACS: inhibition of shLAG-3-Fc binding to MHC II on Daudi cells (column head prints EC50); SM; SD 0.3407
[11] = biological target: T3, human LAG-3 expressed on NSO cells; assay: FACS saturation binding to NSO cells expressing LAG-3; SM; SD 0.1660

B1: BSAB A (bispecific antibody)
heavy 1: QVQLVQSGAEVKKPGASVKVSCKASGYSFTSYWMNWVRQAPGQGLEWIGVIHPSDSETWLDQKFKDRVTITVDKSTSTAYMELSSLRSEDTAVYYCAREHYGTSPFAYWGQGTLVTVSSASTKGPSVFPLAPSSKSTSGGTAALGCLVKDYFPEPVTVSWNSGALTSGVHTFPAVLQSSGLYSLSSVVTVPSSSLGTQTYICNVNHKPSNTKVDKRVEPKSCEKTHTCPECPAPEAAGGPSVFLFPPKPKDTLMISRTPEVTCVVVDVSHEDPEVKFNWYVDGVEVHNAKTKPREEQYNSTYRVVSVLTVLHQDWLNGKEYKCKVSNKALPAPIEKTISKAKGQPREPQVYTLPPSREEMTKNQVSLTCEVKGFYPSDIAVEWESNGQPENNYKTTPPVLDSDGSFFLYSKLTVDKSRWQQGNVFSCSVMHEALHNHYTQKSLSLSPG
light 1: EIVLTQSPATLSLSPGERATLSCRASESVDNYGMSFMNWFQQKPGQPPKLLIHAASNQGSGVPSRFSGSGSGTDFTLTISSLEPEDFAVYFCQQSKEVPYTFGGGTKVEIKRTVAAPSVFIFPPSDEQLKSGTASVVCLLNNFYPREAKVQWKVDNALQSGNSQESVTEQDSKDSTYSLSSTLTLSKADYEKHKVYACEVTHQGLSSPVTKSFNRGEC
heavy 2: QVQLVQSGAEVKKPGASVKVSCKASGYTFTNYGMNWVRQAPGQGLEWMGWINTYTGESTYADDFEGRFVFSMDTSASTAYLQISSLKAEDTAVYYCARESLYDYYSMDYWGQGTTVTVSSASTKGPSVFPLAPSSKSTSGGTAALGCLVKDYFPEPVTVSWNSGALTSGVHTFPAVLQSSGLYSLSSVVTVPSSSLGTQTYICNVNHKPSNTKVDKRVEPKSCRKTHTCPRCPAPEAAGGPSVFLFPPKPKDTLMISRTPEVTCVVVDVSHEDPEVKFNWYVDGVEVHNAKTKPREEQYNSTYRVVSVLTVLHQDWLNGKEYKCKVSNKALPAPIEKTISKAKGQPREPQVYTLPPSREEMTKNQVSLTCLVKGFYPSDIAVEWESNGQPENNYKTTPPVLDSDGSFFLYSRLTVDKSRWQQGNVFSCSVMHEALHNHYTQKSLSLSPG
light 2: DIVMTQTPLSLSVTPGQPASISCKSSQSLLHSDAKTYLNWLLQKPGQPPERLIYLVSELDSGVPDRFSGSGSGTDFTLKISRVEAEDVGVYYCWQGTHFPYTFGGGTKVEIKRTVAAPSVFIFPPSDEQLKSGTASVVCLLNNFYPREAKVQWKVDNALQSGNSQESVTEQDSKDSTYSLSSTLTLSKADYEKHKVYACEVTHQGLSSPVTKSFNRGEC
IC50 [1]: 710 nM | IC50 [2]: 4880 nM | IC50 [3]: 2160 nM

B5: LAG-3 mAb A IgG1 (AA) (antibody, V domains shown)
VH: QVQLQQWGAGLLKPSETLSLTCAVYGGSFSDYYWNWIRQPPGKGLEWIGEINHNGNTNSNPSLKSRVTLSLDTSKNQFSLKLRSVTAADTAVYYCAFGYSDYEYNWFDPWGQGTLVTVSS
VL: EIVLTQSPATLSLSPGERATLSCRASQSISSYLAWYQQKPGQAPRLLIYDASNRATGIPARFSGSGSGTDFTLTISSLEPEDFAVYYCQQRSNWPLTFGQGTNLEIK
notes: IgG1 (AA)
IC50 [10]: 592 nM | EC50 [11]: 452 nM

Results, then the binder that gave them:

IC50 [4]: 482 nM | EC50 [5]: 1010 nM
B2: hLAG-3 mAb 1 (1.4) IgG4 (P) (antibody, V domains shown)
VH: QVQLVQSGAEVKKPGASVKVSCKASGYTFTNYGMNWVRQAPGQGLEWMGWINTYTGESTYADDFEGRFVFSMDTSASTAYLQISSLKAEDTAVYYCARESLYDYYSMDYWGQGTTVTVSS
VL: DIVMTQTPLSLSVTPGQPASISCKSSQSLLHSDAKTYLNWLLQKPGQPPERLIYLVSELDSGVPDRFSGSGSGTDFTLKISRVEAEDVGVYYCWQGTHFPYTFGGGTKVEIK

IC50 [6]: 364 nM | EC50 [7]: 607 nM
B3: hLAG-3 mAb 1 (1.4) IgG1 (AA) (antibody, V domains shown)
VH: QVQLVQSGAEVKKPGASVKVSCKASGYTFTNYGMNWVRQAPGQGLEWMGWINTYTGESTYADDFEGRFVFSMDTSASTAYLQISSLKAEDTAVYYCARESLYDYYSMDYWGQGTTVTVSS
VL: DIVMTQTPLSLSVTPGQPASISCKSSQSLLHSDAKTYLNWLLQKPGQPPERLIYLVSELDSGVPDRFSGSGSGTDFTLKISRVEAEDVGVYYCWQGTHFPYTFGGGTKVEIK

IC50 [8]: 701 nM | EC50 [9]: 597 nM
B4: LAG-3 mAb A IgG4 (P) (antibody, V domains shown)
VH: QVQLQQWGAGLLKPSETLSLTCAVYGGSFSDYYWNWIRQPPGKGLEWIGEINHNGNTNSNPSLKSRVTLSLDTSKNQFSLKLRSVTAADTAVYYCAFGYSDYEYNWFDPWGQGTLVTVSS
VL: EIVLTQSPATLSLSPGERATLSCRASQSISSYLAWYQQKPGQAPRLLIYDASNRATGIPARFSGSGSGTDFTLTISSLEPEDFAVYYCQQRSNWPLTFGQGTNLEIK
notes: IgG4 (P); also called 25F7
